From PMC4937785 (Plant and Cell Physiology, 2016)
“And” between values parts separate entries of the source, which are not always exact repeats. Identical values can stand only once.

B1: Flavodiiron protein Flv3 (sll0550) in Synechocystis sp. PCC 6803 (natural protein, UniProt Q55393 1-573, looked up)
chain: MFTTPLPPQKRLSTQTEAIAKNITAIRSLDWDRDRFDIEFGLQNGTTYNSYLIQADKVALVDSSHEKFRQLYLDLLQGLIDPQRIDYLIVSHTEPDHSGLVKDILQLNPRITVVATKVALQFLDNFVHQPFERIQVKSGDRLDLGQGHDLEFVSAPNLHWPDTMLTYDPATEILFTCDVFGMHYCSDAVFDIDLGKIAPDYQFYYDCLMGPNARSVLAAMKRMDNLGTISTVANGHGPLLRHNVGELLHRYRHWSESQSKAEKTVVVFYVADYGYGDRLSQAIAKGITKTGVGVDMVDLSSADPQEIQELVGHASGVVLGMPPLQANADLSTNFGAVLAAMQPKQVFGLYESYGGDDEPIDPLRTKFLDLGLREAFKVIKVKDTPSESTYQLCDESGTDLGQNLIQAAKIKQLKSLDSDLEKAIGRISGGLYIITAQKGEVKGAMLASWVSQASFNPPGFTVAVAKDRAIESLMQVGDRFVLNILEEGNYQILMKHFLKRFPPGADRFAGVKTQTASNGSPILTDALAYLECEVASRMECSDHWIVYSQVTNGRVAKAEGLTAVHHRKVGNYY
B2: His-tagged Flv3 expressed in Escherichia coli (natural protein, Synechocystis sp. PCC 6803, UniProt Q55393 1-573, looked up)
chain: MFTTPLPPQKRLSTQTEAIAKNITAIRSLDWDRDRFDIEFGLQNGTTYNSYLIQADKVALVDSSHEKFRQLYLDLLQGLIDPQRIDYLIVSHTEPDHSGLVKDILQLNPRITVVATKVALQFLDNFVHQPFERIQVKSGDRLDLGQGHDLEFVSAPNLHWPDTMLTYDPATEILFTCDVFGMHYCSDAVFDIDLGKIAPDYQFYYDCLMGPNARSVLAAMKRMDNLGTISTVANGHGPLLRHNVGELLHRYRHWSESQSKAEKTVVVFYVADYGYGDRLSQAIAKGITKTGVGVDMVDLSSADPQEIQELVGHASGVVLGMPPLQANADLSTNFGAVLAAMQPKQVFGLYESYGGDDEPIDPLRTKFLDLGLREAFKVIKVKDTPSESTYQLCDESGTDLGQNLIQAAKIKQLKSLDSDLEKAIGRISGGLYIITAQKGEVKGAMLASWVSQASFNPPGFTVAVAKDRAIESLMQVGDRFVLNILEEGNYQILMKHFLKRFPPGADRFAGVKTQTASNGSPILTDALAYLECEVASRMECSDHWIVYSQVTNGRVAKAEGLTAVHHRKVGNYY

Experiments:
[1] = molecular target: the molecule itself; experiment: native gel or EMSA
[2] = molecular target: the molecule itself; experiment: SEC

Protein	stoichiometry N [1]	stoichiometry N [2]
B1	2	
B2		2 and 4
